Measured values reported in publication PMC9056652.
Residue numbers refer to the chain shown, from its start.

T1: wt-Obe (tag-free obelin) (UniProt Q27709 1-195)
T1 sequence: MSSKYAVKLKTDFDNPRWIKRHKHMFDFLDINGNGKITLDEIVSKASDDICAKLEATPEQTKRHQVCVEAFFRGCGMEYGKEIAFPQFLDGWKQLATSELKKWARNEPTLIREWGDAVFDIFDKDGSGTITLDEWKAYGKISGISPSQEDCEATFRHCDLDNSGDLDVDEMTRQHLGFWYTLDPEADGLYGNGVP

B1: O79 (structured_RNA)
RNA: GGGAGACAAGAAUAAACGCUCAAUGUGAAGUCGCAUUUAAUUGCUGGCGCCGUUUACUUGCUCUUCGACAGGAGGCUCACAACAGGC
modifications: 2'-F on all C and U
B2: O79t (structured_RNA)
RNA: GGGAGACAAGAAUAAACGCUCAAUGUGAAGUCGCAUUUAAUUGCUGGCGCCGUUUACUUGCUC
modifications: 2'-F on all C and U
B3: O3t (structured_RNA)
RNA: B2 RNA with U36C, A40G, C50U
modifications: 2'-F on all C and U
B4: O35 (structured_RNA)
RNA: GGGAGACAAGAAUAAACGCUCAAUAGGGUACGCGGACAGCGAUGGGACCGCGUUGCCAGCCCCUUCGACAGGAGGCUCACAACAGGC
modifications: 2'-F on all C and U
B5: O5 (structured_RNA)
RNA: GGGAGACAAGAAUAAACGCUCAAGUUGUACGCGGUUGGCAAUCCGCGUUGCUUUACGGGUUCCUUCGACAGGAGGCUCACAACAGGC
modifications: 2'-F on all C and U
B6: O6t (structured_RNA)
RNA: GGGAGACAAGAAUAAACGCUCAAGACGUGCGCGGGAAAGACCGACGCUCUACCCCUACAAGCU
modifications: 2'-F on all C and U
B7: O4t (structured_RNA)
RNA: GGGAGACAAGAAUAAACGCUCAACUAGGCUGUGCGCGGUGCCCUAUCUUAUCCGCGCCUCUCCU
modifications: 2'-F on all C and U

Columns and labels:
wt-Obe (tag-free obelin) [1] = target: T1, wt-Obe (tag-free obelin); test: DRaCALA
wt-Obe (tag-free obelin) [2] = target: T1, wt-Obe (tag-free obelin); test: solid-phase bioluminescent assay

Binder	Kd (wt-Obe (tag-free obelin) [1]) [nM]	binding result (wt-Obe (tag-free obelin) [1])	other results
B1	690		
B2	720		
B3	1370		
B4		no binding	
B5			binding result (wt-Obe (tag-free obelin) [2]): binds
B6		no binding	
B7		no binding	
